Assay results from paper PMC6827562 (Structure (London, England : 1993), 2019).

Tests used:
PP-1c (Homo sapiens) = PP-1c (Homo sapiens) (UniProt P62136); details: cited from earlier work
[1] = biological target: T1, Protein phosphatase-1cα (PP-1cα) (human, UniProt P62136 1-330); assay: SEC-MALS
p53 DBD = p53 DBD (human, UniProt P04637 94-292); assay: EMSA
[2] = biological target: T1, Protein phosphatase-1cα (PP-1cα); assay: crystal structure

T1 sequence (P62136 whole entry): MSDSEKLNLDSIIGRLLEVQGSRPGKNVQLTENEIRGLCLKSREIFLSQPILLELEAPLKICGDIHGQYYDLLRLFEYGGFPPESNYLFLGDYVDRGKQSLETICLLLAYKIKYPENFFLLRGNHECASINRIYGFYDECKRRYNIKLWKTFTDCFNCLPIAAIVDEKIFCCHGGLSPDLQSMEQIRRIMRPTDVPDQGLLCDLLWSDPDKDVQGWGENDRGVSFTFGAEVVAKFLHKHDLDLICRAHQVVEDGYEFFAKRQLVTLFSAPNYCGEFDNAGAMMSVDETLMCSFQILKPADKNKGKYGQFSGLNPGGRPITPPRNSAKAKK
Chain of p53 DBD (P04637 94-292): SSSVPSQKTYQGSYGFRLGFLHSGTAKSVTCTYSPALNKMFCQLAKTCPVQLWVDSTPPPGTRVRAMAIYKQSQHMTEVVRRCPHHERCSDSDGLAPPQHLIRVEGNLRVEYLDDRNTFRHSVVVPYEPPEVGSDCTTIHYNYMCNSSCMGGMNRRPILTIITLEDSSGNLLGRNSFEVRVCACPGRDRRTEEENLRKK
Chain of PP-1c (Homo sapiens) (P62136 2-330): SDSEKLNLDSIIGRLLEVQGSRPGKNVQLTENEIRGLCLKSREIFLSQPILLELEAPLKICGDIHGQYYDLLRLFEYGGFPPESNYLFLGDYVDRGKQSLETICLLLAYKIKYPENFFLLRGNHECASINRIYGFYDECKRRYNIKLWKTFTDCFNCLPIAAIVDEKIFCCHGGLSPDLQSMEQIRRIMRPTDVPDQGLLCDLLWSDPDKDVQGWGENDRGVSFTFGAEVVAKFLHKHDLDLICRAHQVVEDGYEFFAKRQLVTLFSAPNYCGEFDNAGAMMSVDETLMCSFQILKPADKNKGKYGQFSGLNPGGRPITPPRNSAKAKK

## iASPP (from UniProt Q8WUF5)
PP-1c (Homo sapiens)
  Kd: 26 nM

B1: ASPP2_(905–1128) (domain or fragment, human, UniProt Q13625 905-1128, looked up)
chain: RTNLRKTGSERIAHGMRVKFNPLALLLDSSLEGEFDLVQRIIYEVDDPSLPNDEGITALHNAVCAGHTEIVKFLVQFGVNVNAADSDGWTPLHCAASCNNVQVCKFLVESGAAVFAMTYSDMQTAADKCEEMEEGYTQCSQFLYGVQEKMGIMNKGVIYALWDYEPQNDDELPMKEGDCMTIIHREDEDEIEWWWARLNDKEGYVPRNLLGLYPRIKPRQRSLA
[1]
  binding result: binds

B2: iASPP(621–828) (domain or fragment, human, UniProt Q8WUF5 621-828, looked up)
chain: RRARLNPLVLLLDAALTGELEVVQQAVKEMNDPSQPNEEGITALHNAICGANYSIVDFLITAGANVNSPDSHGWTPLHCAASCNDTVICMALVQHGAAIFATTLSDGATAFEKCDPYREGYADCATYLADVEQSMGLMNSGAVYALWDYSAEFGDELSFREGESVTVLRRDGPEETDWWWAALHGQEGYVPRNYFGLFPRVKPQRSKV
[1]
  binding result: binds

B3: PUMA p53 site (dsDNA)
DNA 1: CGCGCCTGCAAGTCCTGACTTGTCCGCGGC
DNA 2: GCCGCGGACAAGTCAGGACTTGCAGGCGCG
p53 DBD
  binding result: binds

B4: iASPP_(608–828) (domain or fragment, human, UniProt Q8WUF5 608-828, looked up)
chain: RSVLRKAGSPRKARRARLNPLVLLLDAALTGELEVVQQAVKEMNDPSQPNEEGITALHNAICGANYSIVDFLITAGANVNSPDSHGWTPLHCAASCNDTVICMALVQHGAAIFATTLSDGATAFEKCDPYREGYADCATYLADVEQSMGLMNSGAVYALWDYSAEFGDELSFREGESVTVLRRDGPEETDWWWAALHGQEGYVPRNYFGLFPRVKPQRSKV
[2]
  binding result: binds
